Measured values: patent US20240124607A1 (Merck Sharp & Dohme, published 2024)

T1: human NKG2D-Fc (human, UniProt P26718 73-216)
T1 construct: extracellular domain; also called recombinant human NKG2D-Fc; NKG2D-Fc-biotin
T1 sequence (looked up): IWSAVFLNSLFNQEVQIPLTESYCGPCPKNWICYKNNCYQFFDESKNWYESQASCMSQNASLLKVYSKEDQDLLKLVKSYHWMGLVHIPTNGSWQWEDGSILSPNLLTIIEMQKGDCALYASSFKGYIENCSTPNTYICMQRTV

T2: mouse NKG2D-Fc (mouse, UniProt O54709 90-232)
T2 construct: extracellular domain; also called Mouse NKG2D-Fc-biotin
T2 sequence (looked up): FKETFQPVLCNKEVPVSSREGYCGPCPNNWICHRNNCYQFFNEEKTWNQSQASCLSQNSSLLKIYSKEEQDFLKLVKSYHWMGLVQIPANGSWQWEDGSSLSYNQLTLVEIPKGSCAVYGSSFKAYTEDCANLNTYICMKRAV

T3: cynomolgus NKG2D-Fc (cynomolgus monkey, UniProt P61252 73-216)
T3 construct: extracellular domain
T3 sequence (looked up): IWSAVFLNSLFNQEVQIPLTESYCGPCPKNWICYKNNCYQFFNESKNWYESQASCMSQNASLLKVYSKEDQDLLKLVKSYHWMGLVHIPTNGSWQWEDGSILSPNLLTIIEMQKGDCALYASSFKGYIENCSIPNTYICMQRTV

T4: human CEACAM5 on cells (human, UniProt P06731 35-685)
T4 construct: tumour cell lines with endogenous CEACAM5, or B16F10 engineered to express hCEACAM5; also called CEACAM5 on MKN-45, HPAF-II, SK-CO-1, LoVo, BxPC-3, Kato-III, LS-174T, ZR-75-30; hCEACAM5-B16F10
T4 sequence: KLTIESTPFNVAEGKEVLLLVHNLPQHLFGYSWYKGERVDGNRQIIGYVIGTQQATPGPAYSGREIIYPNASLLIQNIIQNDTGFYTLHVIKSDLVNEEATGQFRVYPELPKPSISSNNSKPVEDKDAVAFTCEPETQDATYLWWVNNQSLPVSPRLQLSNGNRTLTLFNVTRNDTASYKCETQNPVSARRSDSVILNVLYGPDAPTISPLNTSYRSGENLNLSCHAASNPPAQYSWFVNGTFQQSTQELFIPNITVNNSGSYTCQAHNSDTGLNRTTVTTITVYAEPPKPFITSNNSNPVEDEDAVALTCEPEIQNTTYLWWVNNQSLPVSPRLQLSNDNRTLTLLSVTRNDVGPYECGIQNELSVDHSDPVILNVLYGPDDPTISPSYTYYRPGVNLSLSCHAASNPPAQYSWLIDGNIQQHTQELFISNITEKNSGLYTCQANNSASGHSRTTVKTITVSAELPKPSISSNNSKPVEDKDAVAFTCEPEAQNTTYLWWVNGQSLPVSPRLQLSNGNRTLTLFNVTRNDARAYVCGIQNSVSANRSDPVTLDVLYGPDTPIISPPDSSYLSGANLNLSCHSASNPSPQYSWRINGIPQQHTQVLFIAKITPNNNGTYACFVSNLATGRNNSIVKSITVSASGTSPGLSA


Key:
[1] = molecular target: T1, human NKG2D-Fc; assay: ELISA on plate-adsorbed recombinant human NKG2D-Fc, anti-human kappa-HRP, OD 450 nm
From the text: (§1) The nucleic acid sequences of human, mouse or cynomolgus NKG2D ectodomains were fused with nucleic acid sequences encoding human IgG1 Fc domains and introduced into mammalian cells to be expressed. After purification, NKG2D-Fc fusion proteins were adsorbed to wells of microplates. After blocking the wells with bovine serum albumin to prevent non-specific binding, NKG2D-binding domains were titrated and added to the wells pre-adsorbed with NKG2D-Fc fusion proteins. Primary antibody binding was detected using a secondary antibody which was conjugated to horseradish peroxidase and specifically recognizes a human kappa light chain to avoid Fc cross-reactivity. 3,3′,5,5′-Tetramethylbenzidine (TMB), a substrate for horseradish peroxidase, was added to the wells to visualize the binding signal, whose absorbance was measured at 450 nm and corrected at […]. An NKG2D-binding domain clone, an isotype control or a positive control (comprising heavy chain and light chain variable domains selected from the group consisting of: SEQ ID NOs: 526-529, or anti-mouse NKG2D clones MI-6 and CX-5 available at eBioscience) was added to each well.

[2] = molecular target: T2, mouse NKG2D-Fc; assay: ELISA on plate-adsorbed recombinant mouse NKG2D-Fc, anti-human kappa-HRP, OD 450 nm
From the text: as §1

[3] = molecular target: T3, cynomolgus NKG2D-Fc; assay: ELISA on plate-adsorbed recombinant cynomolgus NKG2D-Fc, anti-human kappa-HRP, OD 450 nm
From the text: as §1

[4] = molecular target: T1, human NKG2D-Fc; assay: competition ELISA on plate-adsorbed human NKG2D-Fc; blocked ligand ULBP-6-His-biotin
Protocol: Recombinant human NKG2D-Fc proteins were adsorbed to wells of a microplate, and the wells were blocked with bovine serum albumin to reduce non-specific binding. A saturating concentration of ULBP-6-His-biotin was added to the wells, followed by addition of the NKG2D-binding domain clones. After a 2-hour incubation, wells were washed and ULBP-6-His-biotin that remained bound to the NKG2D-Fc coated wells was detected by streptavidin-conjugated to horseradish peroxidase and TMB substrate. Absorbance was measured at 450 nm and corrected at […]. After subtracting background, specific binding of NKG2D-binding domains to the NKG2D-Fc proteins was calculated from the percentage of ULBP-6-His-biotin that was blocked from binding to the NKG2D-Fc proteins in wells.

[5] = molecular target: T1, human NKG2D-Fc; assay: competition ELISA: human NKG2D-Fc-biotin binding to plate-adsorbed MICA-Fc is blocked
Protocol: Recombinant human MICA-Fc proteins were adsorbed to wells of a microplate, and the wells were blocked with bovine serum albumin to reduce non-specific binding. NKG2D-Fc-biotin was added to wells followed by NKG2D-binding domains. After incubation and washing, NKG2D-Fc-biotin that remained bound to MICA-Fc coated wells was detected using streptavidin-HRP and TMB substrate. Absorbance was measured at 450 nm and corrected at […]. After subtracting background, specific binding of NKG2D-binding domains to the NKG2D-Fc proteins was calculated from the percentage of NKG2D-Fc-biotin that was blocked from binding to the MICA-Fc coated wells.

[6] = molecular target: T2, mouse NKG2D-Fc; assay: competition ELISA: mouse NKG2D-Fc-biotin binding to plate-adsorbed Rae-1delta-Fc is blocked
Protocol: Recombinant mouse Rae-1delta-Fc (purchased from R&D Systems) was adsorbed to wells of a microplate, and the wells were blocked with bovine serum albumin to reduce non-specific binding. Mouse NKG2D-Fc-biotin was added to the wells followed by NKG2D-binding domains. After incubation and washing, NKG2D-Fc-biotin that remained bound to Rae-1delta-Fc coated wells was detected using streptavidin-HRP and TMB substrate. Absorbance was measured at 450 nm and corrected at […]. After subtracting background, specific binding of NKG2D-binding domains to the NKG2D-Fc proteins was calculated from the percentage of NKG2D-Fc-biotin that was blocked from binding to the Rae-1delta-Fc coated wells.

[7] = molecular target: T4, human CEACAM5 on cells; assay: flow cytometry, LoVo cells
[8] = molecular target: T4, human CEACAM5 on cells; assay: flow cytometry, BxPC-3 cells
[9] = molecular target: T4, human CEACAM5 on cells; assay: flow cytometry, MKN-45 cells
[10] = molecular target: T4, human CEACAM5 on cells; assay: flow cytometry, SK-CO-1 cells
[11] = molecular target: T4, human CEACAM5 on cells; assay: flow cytometry, Kato-III cells
[12] = molecular target: T4, human CEACAM5 on cells; assay: flow cytometry, MKN-45 cells; MKN-45 cells

Binder	EC50 (read off the curve) [1] [nM]	EC50 (read off the curve) [2] [nM]	EC50 (read off the curve) [3] [nM]	IC50 (read off the curve) [4] [nM]	IC50 (read off the curve) [5] [nM]	IC50 (read off the curve) [6] [nM]	EC50 [7] [nM]	Max FOB [7] [fold over background]	EC50 [8] [nM]	Max FOB [8] [fold over background]	Max FOB [9] [fold over background]	EC50 [10] [nM]	Max FOB [10] [fold over background]	EC50 [11] [nM]	Max FOB [11] [fold over background]	EC50 [12] [nM]
ADI-27743 (antibody, V domains shown, named as a single clone only on the drawing sheets) VH: QVQLQQWGAGLLKPSETLSLTCAVYGGSFSGYYWSWIRQPPGKGLEWIGEIDHSGSTNYNPSLKSRVTISVDTSKNQFSLKLSSVTAADTAVYYCARARGPWSFDPWGQGTLVTVSS VL: not shown	~0.4	~0.2	~0.3	~3	~20	~20	–	–	–	–	–	–	–	–	–	–
AB0509 (antibody, V domains shown, the scFv entries carry the stabilising cysteines, which the mAb may lack; also called mAb corresponding to AB0411) VH: QVQLVQSGGGLVQPGGSLRLSCAASGFTFTSYAMSWVRQAPGKGLEWVSAISGTGDSTFYADSVKGRFTFSRDNSKNTLYLQMNSLRAEDTAVYYCAKDLGWLQYGLFDYWGQGTLVTVSS VL: DIQLTQSPATLSVSPGERATLSCRASQSVSSSYLAWYQQKPGQAPRLLIYGASSRATGIPDRFSGSGSGTDFTLTISRLEPEDFAVYYCQQYNNWPLTFGGGTKVEIK	–	–	–	–	–	–	3.25	19	4.28	19	107	8.67	37	1.17	5	< 9.05
